Tests used:
Assay in all cases: cell-based or functional assay
[1] = target: purified Sp1 (Promega Corp.) (UniProt P08047)
[2] = target: Sp1 in nuclear extracts of primary rat striatal neurons (endogenous) (rat) (UniProt Q01714)
[3] = target: Sp1 in human brain tissue (endogenous) (human) (UniProt P08047)
Sp1 in human brain tissue (endogenous) (human), sequence (P08047 2-785 limits assumed): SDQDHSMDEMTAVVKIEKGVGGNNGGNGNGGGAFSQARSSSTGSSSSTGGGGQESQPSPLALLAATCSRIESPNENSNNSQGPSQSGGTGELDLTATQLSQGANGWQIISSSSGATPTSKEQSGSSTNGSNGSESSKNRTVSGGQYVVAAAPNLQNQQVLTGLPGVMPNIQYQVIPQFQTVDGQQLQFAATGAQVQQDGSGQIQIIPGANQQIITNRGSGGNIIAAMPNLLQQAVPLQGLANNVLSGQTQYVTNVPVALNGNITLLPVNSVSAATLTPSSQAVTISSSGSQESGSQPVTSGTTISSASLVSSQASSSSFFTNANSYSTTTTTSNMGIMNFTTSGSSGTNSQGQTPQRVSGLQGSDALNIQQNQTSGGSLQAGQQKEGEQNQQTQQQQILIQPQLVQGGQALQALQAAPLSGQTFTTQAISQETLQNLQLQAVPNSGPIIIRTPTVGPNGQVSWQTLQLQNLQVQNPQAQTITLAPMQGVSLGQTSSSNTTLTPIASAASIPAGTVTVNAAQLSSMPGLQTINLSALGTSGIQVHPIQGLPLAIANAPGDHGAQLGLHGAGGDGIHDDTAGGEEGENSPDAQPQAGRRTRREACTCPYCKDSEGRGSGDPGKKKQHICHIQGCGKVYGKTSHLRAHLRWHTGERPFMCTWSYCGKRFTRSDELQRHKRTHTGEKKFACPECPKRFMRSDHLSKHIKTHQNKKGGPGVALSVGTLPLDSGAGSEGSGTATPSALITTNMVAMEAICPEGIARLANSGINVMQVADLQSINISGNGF

purified Sp1 (Promega Corp.), sequence (P08047 8-785 limits assumed): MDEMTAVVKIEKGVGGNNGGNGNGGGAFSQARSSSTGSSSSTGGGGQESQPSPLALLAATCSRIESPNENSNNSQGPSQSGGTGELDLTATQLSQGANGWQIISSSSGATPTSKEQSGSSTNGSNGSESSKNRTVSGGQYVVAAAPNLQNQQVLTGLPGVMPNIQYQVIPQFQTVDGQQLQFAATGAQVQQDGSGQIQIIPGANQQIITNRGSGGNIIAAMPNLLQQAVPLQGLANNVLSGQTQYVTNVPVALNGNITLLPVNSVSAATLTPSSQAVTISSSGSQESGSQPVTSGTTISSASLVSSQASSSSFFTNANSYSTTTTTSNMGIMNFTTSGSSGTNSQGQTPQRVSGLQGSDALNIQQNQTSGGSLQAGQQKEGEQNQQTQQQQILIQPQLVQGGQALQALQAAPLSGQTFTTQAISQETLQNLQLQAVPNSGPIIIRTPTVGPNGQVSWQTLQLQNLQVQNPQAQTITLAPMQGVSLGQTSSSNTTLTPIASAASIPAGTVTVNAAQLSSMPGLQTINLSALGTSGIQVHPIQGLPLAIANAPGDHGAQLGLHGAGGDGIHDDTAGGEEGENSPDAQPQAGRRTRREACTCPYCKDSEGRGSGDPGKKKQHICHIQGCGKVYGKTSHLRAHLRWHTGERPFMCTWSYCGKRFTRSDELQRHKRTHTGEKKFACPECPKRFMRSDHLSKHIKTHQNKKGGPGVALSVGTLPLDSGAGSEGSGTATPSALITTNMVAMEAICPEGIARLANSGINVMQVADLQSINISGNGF
Sp1 in nuclear extracts of primary rat striatal neurons (endogenous) (rat), sequence (Q01714 2-786 limits assumed): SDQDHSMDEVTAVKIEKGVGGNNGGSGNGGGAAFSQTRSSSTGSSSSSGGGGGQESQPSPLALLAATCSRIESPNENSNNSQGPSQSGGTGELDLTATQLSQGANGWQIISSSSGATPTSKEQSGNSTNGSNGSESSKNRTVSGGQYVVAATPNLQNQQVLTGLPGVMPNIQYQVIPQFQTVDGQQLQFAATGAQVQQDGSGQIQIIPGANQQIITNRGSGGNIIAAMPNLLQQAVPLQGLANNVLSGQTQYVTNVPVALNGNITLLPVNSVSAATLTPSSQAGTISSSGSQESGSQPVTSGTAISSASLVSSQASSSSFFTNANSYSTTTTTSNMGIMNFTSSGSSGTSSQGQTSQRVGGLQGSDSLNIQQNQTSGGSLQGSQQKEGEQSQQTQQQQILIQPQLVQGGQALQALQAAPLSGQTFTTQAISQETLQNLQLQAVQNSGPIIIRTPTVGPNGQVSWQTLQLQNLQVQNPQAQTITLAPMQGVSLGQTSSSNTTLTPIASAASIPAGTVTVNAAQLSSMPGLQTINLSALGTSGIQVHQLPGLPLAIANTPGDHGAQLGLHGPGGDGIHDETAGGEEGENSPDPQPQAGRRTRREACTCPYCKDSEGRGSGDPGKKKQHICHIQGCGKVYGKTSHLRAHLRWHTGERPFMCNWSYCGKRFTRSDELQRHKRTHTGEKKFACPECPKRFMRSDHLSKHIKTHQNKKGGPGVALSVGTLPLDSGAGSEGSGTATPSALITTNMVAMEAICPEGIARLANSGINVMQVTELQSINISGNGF

Substance: glutathione S-transferase (GST)-huntingtin fusion protein with 51 glutamines (from UniProt P42858 1-88)
- inhibition of Sp1 binding to a labeled consensus Sp1 site (EMSA with purified proteins) [1]: 70%

Substance: mutant full-length huntingtin with 75 glutamines (HttQ75), P42858 1-3142
- inhibition of Sp1 binding to a labeled D2 promoter fragment (EMSA, nuclear extracts of transfected striatal cells) [2]: 55%

Substance: huntingtin in human HD brain tissue (endogenous) (from UniProt P42858 1-3142)
- decrease of Sp1 binding to its D2 binding site (EMSA, nuclear extracts of caudate, grade 1 HD brain against control brain) [3]: 39%
- decrease of Sp1 binding to its D2 binding site (EMSA, nuclear extracts of caudate, grade 4 HD brain against control brain) [3]: 48%

Substance: glutathione S-transferase (GST)-huntingtin fusion protein with 20 glutamines (from UniProt P42858 1-88)
- reduction in Sp1 binding to a labeled consensus Sp1 site (EMSA with purified proteins) [1]: 20%
